B1: H1H1863N2(Fuc+) (antibody, human IgG1, V domains shown)
VH: EVQLVESGGGLVQPGGSLRLSCAASGFPFSSYDMHWVRQATGKGLEWVSAIGTAGATYYPGSVKGRFTISRENAKNSLYLQMNSLRAGDTAVYYCARGDYVWGTYRPLFDYWGQGTLVTVSS
VL: DIQLTQSPSFLSASVGDRVTITCWASQGINNYLAWYQQKPGKAPKLLIYAASTLQTGVPSRFSGSGSGTEFTLTISSLQPEDFATYYCQQLNSYPLTFGGGTKVEIK
notes: the numerical identifier ties them; also called H1H863N2; H1H863N2(Fuc+)
B2: H1H1911N (antibody, human IgG1, V domains shown)
VH: QVQLVESGGGVVQPGRSLRLSCAASGFTFSRYGIHWVRQAPGKGLEWVAVIWHDGSNKYYADSVKGRFTISRDNSKNTLYLQMTSLRAEDTAVYYCARDGLEIRDHYYYGMDVWGQGTTVTVSS
VL: DIQMTQSPSTLSASVGDRVTITCRASQSTSSWLAWYQQKPGKAPTLLIYKASSLESGVPSKFSGSGSGTEFTLTISSLQPDDFATYYCQQYNRYSRTFGQGTKVEIK
notes: Human IgG1 Fc; also called H2M1911N (same variable domains)
B3: H1H1913N (antibody, human IgG1, V domains shown)
VH: QVQLQQWGAGLLKPSETLSLTCAVYGGSFSGDYWSWIRQSPGKGLEWIGEINHSGSTNYNPSLKSRVTISIDTSKNQFSLKLSSVTAADTAVYYCARGGGDYYYGMDVWGLGTTVTVSS
VL: AIQMTQSPSSLSASVGDRVTITCRASQGIGNDLGWYQQKPGKAPNLLIYATSSLQSGVPSRFSGSGSGTDFTLTISSLQPEDFATYYCLQDYNYPWTFGQGTKVEIK
notes: Human IgG1 Fc; also called H3M1913N (same variable domains)
B4: H1H1915N (antibody, human IgG1, V domains shown)
VH: QVQLVESGGGVVQPGRSLRLSCAASGFTFSAYAMHWVRQAPGKGLEWVAVIWYDGSNKNYADSVKGRFTVSRDNSKNTLYLEMNSLRAEDTAVYYCARDLMVGVTNYWGQGTLVTVST
VL: DVVMTQSPLSLPVALGQPASISCRSSQSLVYTDGNTYLNWFHQRPGQSPRRLIYKVSNRDSGVPDRFTGSGSGTDFTLKISRVEAEDVGVFYCMQGSHWPPYTFGQGTKLEIK
notes: Human IgG1 Fc; also called H2M1915N (same variable domains)
B5: H1H1912N (antibody, human IgG1, V domains shown)
VH: EVQLVESGGGLVQPGRSLRLSCAASGFTFDDYAMHWVRQVPGKGLEWVSGISWNSGSIGYADSVKGRFTISRDNAKNSLYLQMNSLRAEDTALYYCAKDIHDYGKDYYYYYGMDVWGQGTTVTVSS
VL: EIALTQSPGTLSLSPGERATLSCRASQSVSSTYLAWYQQKPGQAPRLLIYGASSRATGIPDRFSGSGSGTDFTLTISRLEPEDFAVYYCQQYDSSPITFGQGTRLEIK
notes: Human IgG1 Fc; also called H2M1912N (same variable domains)
B6: H1H2194P (antibody, human IgG1, V domains shown)
VH: QVQLVQSGAEVKKPGASVKVSCKASGYTFTSYDINWVRQATGQGLEWMGWINPNSDYTGYVQKFQGRVTMTRDTSISTAYMELSSLRSEDTAVYYCATSRWSEHFHHWGQGTLVTVSS
VL: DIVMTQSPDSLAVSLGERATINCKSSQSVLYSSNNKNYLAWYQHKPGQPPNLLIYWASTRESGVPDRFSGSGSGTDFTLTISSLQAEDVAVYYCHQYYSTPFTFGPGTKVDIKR
notes: Human IgG1 Fc; also called H1H2194N

Columns and labels:
EGFRvIII-mFc [1] = molecular target: T1, EGFRvIII-mFc (human); experiment: SPR 37C, mAb-capture
T1 construct: Soluble dimeric protein

EGFRvIII-mFc [2] = molecular target: T1, EGFRvIII-mFc; experiment: SPR 37C, receptor-capture
Experimental: (§1) Measurements were conducted on a T100 BIACORE™ instrument. […] In the receptor-capture format, either EGFRvIII-mFc or EGFR-mFc, was captured on the BIACORE™ chip and the respective antibodies flowed over. Kinetic association (kₐ) and dissociation (kd) rate constants were determined by processing and fitting the data to a 1:1 binding model using Scrubber 2.0 curve fitting software. Binding dissociation equilibrium constants (KD) and dissociative half-lives (t_{1/2}) were calculated from the kinetic rate constants as: KD (M)=kd/kₐ; and t₁₁₂ (min)=ln2/(60*kd).

EGFRvIII-mFc [3] = molecular target: T1, EGFRvIII-mFc; experiment: SPR 37C, receptor-capture; 37 C, receptor-capture format (EGFRvIII-mFc captured)
Experimental: as §1

[4] = molecular target: T2, full-length hEGFRvIII on cells (human, UniProt P00533 298-1210); experiment: cell-based or functional assay
[5] = molecular target: T2, full-length hEGFRvIII on cells; experiment: FACS, HEK293/EGFRvIII cells, PE secondary antibody
Experimental: (§2) To determine the specificity of the anti-EGFRvIII mAbs, their binding to HEK293, HEK293 cells expressing EGFRvIII (HEK293/EGFRvIII) and A431 cells, was analyzed by fluorescence activated cell sorting (FACS). HEK293/EGFRvIII cells were prepared by transfecting HEK293 cells with neomycin resistant DNA vectors constitutively expressing full-length hEGFRvIII (SEQ ID NO:147) using LIPOFECTAMINE™ 2000 transfection reagent (INVITROGEN™). At two days post-transfection, cells were placed under G418 selection for approximately two weeks. Populations positively expressing EGFRvIII were isolated via fluorescence activated cell sorting (FACS). The HEK293 cells expressing ˜3×10⁶ copies of EGFRvIII per cell were used in the experiment. […] In another set of experiment, anti-EGFRvIII antibodies were directly conjugated via their lysine residues with the fluorescent dye, ALEXA FLUOR® 488 Dye (INVITROGEN™), thereby eliminating the step using the secondary antibody. […] Controls I, II, III, IV and V are described above. MFI: Mean Fluorescence Intensity.

EGFR-mmh [6] = molecular target: T3, EGFR-mmh (human, UniProt P00533 25-647, limits assumed); experiment: ELISA; ELISA, 25 C, EGFR-mmh coated on the plate
T3 construct: Soluble monomeric protein; also called hEGFR-mmh
Source text: (§3) To further characterize anti-hEGFRvIII mAbs, their binding specificity was examined by ELISA. […] Also, coated was an irrelevant peptide (control peptide) with or without biotin at its N-terminal. […] The plates were then washed and bound anti-EGFRvIII mAbs were detected with anti-human Fc antibodies conjugated with horse-radish peroxidase (HRP). […] Data analysis used a sigmoidal dose-response model within PRISM™ software.

EGFR-mFc [7] = molecular target: T4, EGFR-mFc (human); experiment: SPR 37C, receptor-capture; 37 C, receptor-capture format (EGFR-mFc captured)
T4 construct: Soluble dimeric protein
Experimental: as §1

EGFRvIII-mmh [8] = molecular target: T5, EGFRvIII-mmh (human, UniProt P00533 298-647, limits assumed); experiment: ELISA; ELISA, 25 C, EGFRvIII-mmh coated on the plate
T5 construct: Soluble monomeric protein; also called hEGFRvIII-mmh; hEGFRvIII.mmh
Source text: as §3

[9] = molecular target: T6, wild-type human EGFR on cells (human, UniProt P00533 25-1210); experiment: FACS, A431 cells, directly labeled antibody
T6 construct: Stands for transfected HEK293/hEGFRwt, endogenous EGFR of A431 and of parental HEK293 cells, and human EGFR of hEGFR mice; the cell line is named under assay; also called EGFRwt; hEGFRwt
Experimental: as §2

[10] = molecular target: T2, full-length hEGFRvIII on cells; experiment: FACS, HEK293/EGFRvIII cells, directly labeled antibody
Experimental: as §2

[11] = molecular target: T6, wild-type human EGFR on cells; experiment: FACS, A431 cells, PE secondary antibody
Experimental: as §2

EGFRvIII-mmh [12] = molecular target: T5, EGFRvIII-mmh; experiment: ELISA
Source text: as §3

EGFRvIII-mmh [13] = molecular target: T5, EGFRvIII-mmh; experiment: SPR 37C, mAb-capture
EGFR-mmh [14] = molecular target: T3, EGFR-mmh; experiment: ELISA
Source text: as §3

EGFR-mmh [15] = molecular target: T3, EGFR-mmh; experiment: SPR 37C, mAb-capture
EGFR-mFc [16] = molecular target: T4, EGFR-mFc; experiment: SPR 37C, mAb-capture
EGFR-mFc [17] = molecular target: T4, EGFR-mFc; experiment: SPR 37C, receptor-capture
Experimental: as §1

Binder | T½ (EGFRvIII-mFc [1]) [min] | T½ (EGFRvIII-mFc [2]) [h] | EC50 (EGFR-mmh [6]) [nM] | Kd (EGFR-mFc [7]) [nM] | T½ (EGFR-mFc [7]) [min] | koff (EGFR-mFc [7]) [s⁻¹] | kon (EGFR-mFc [7]) [M⁻¹ s⁻¹] | A431 MFI [9] [MFI] | Fold Above Background [9] [fold] | HEK293/EGFRvIII MFI [10] [MFI] | Ratio (EGFRvIII MFI/parental MFI) [10] | EC50 (EGFRvIII-mmh [12]) [nM] | Kd (EGFRvIII-mFc [1]) [nM] | koff (EGFRvIII-mFc [1]) [s⁻¹] | kon (EGFRvIII-mFc [1]) [M⁻¹ s⁻¹] | Kd (EGFRvIII-mmh [13]) [nM] | T½ (EGFRvIII-mmh [13]) [min] | koff (EGFRvIII-mmh [13]) [s⁻¹] | kon (EGFRvIII-mmh [13]) [M⁻¹ s⁻¹] | Kd (EGFRvIII-mFc [2]) [nM] | also measured
B1 | 14 | 0.933 |  |  |  |  |  |  |  |  |  |  |  |  |  |  |  |  |  |  | 
B2 |  |  | 9.06 | 224 | 7 | 0.00174 | 7770 | 16000 | 2.4 | 55100 | 15.3 |  |  |  |  |  |  |  |  |  | Kd (EGFRvIII-mFc [3]): 19.5 nM; T½ (EGFRvIII-mFc [3]): 18 min; koff (EGFRvIII-mFc [3]): 0.000643 s⁻¹; kon (EGFRvIII-mFc [3]): 32900 M⁻¹ s⁻¹; Fluorescent Intensity of vesicles 4° C., Mean [4]: 29800; Fluorescent Intensity of vesicles 37° C., Mean [4]: 280000; HEK293/EGFRvIII MFI [5]: 107000 MFI; Ratio (EGFRvIII MFI/parental MFI) [5]: 59.1; EC50 (EGFRvIII-mmh [8]): 0.0748 nM; A431 MFI [11]: 3140 MFI; Fold Above Background [11]: 2.2 fold
B3 | 37 | 192 | 2.55 | ≤ 0.169 |  | ≤ 1e-06 | 5930 |  |  | 239000 | 49.8 | 2.14 | 22.6 | 0.000316 | 14000 | 7030 | 10 | 0.00114 | 163 | ≤ 0.0159 | koff (EGFRvIII-mFc [2]): ≤ 1e-06 s⁻¹; kon (EGFRvIII-mFc [2]): 63000 M⁻¹ s⁻¹
B4 |  |  |  | 184 | 1.4 | 0.00801 | 43500 | 8440 | 1.2 | 73400 | 21.2 |  |  |  |  |  |  |  |  |  | Kd (EGFRvIII-mFc [3]): 3.2 nM; T½ (EGFRvIII-mFc [3]): 35 min; koff (EGFRvIII-mFc [3]): 0.000328 s⁻¹; kon (EGFRvIII-mFc [3]): 100000 M⁻¹ s⁻¹; EC50 (EGFRvIII-mmh [8]): 0.167 nM
B5 | 12 | 0.367 | 0.0405 | 22.9 | 13 | 0.000914 | 39900 | 14300 | 2.1 | 122000 | 32.7 | 0.0118 | 47.7 | 0.000971 | 20400 | 899 | 0.7 | 0.0164 | 18300 | 5.4 | Fluorescent Intensity of vesicles 4° C., Mean [4]: 4910; Fluorescent Intensity of vesicles 37° C., Mean [4]: 370000; koff (EGFRvIII-mFc [2]): 0.000537 s⁻¹; kon (EGFRvIII-mFc [2]): 99000 M⁻¹ s⁻¹
B6 | 52 | 2.62 |  |  |  |  |  |  |  |  |  | 0.0032 | 2.33 | 0.000222 | 95400 | 17 | 8 | 0.00137 | 81000 | 0.394 | HEK293/EGFRvIII MFI [5]: 18600 MFI; Ratio (EGFRvIII MFI/parental MFI) [5]: 18.9; EC50 (EGFR-mmh [14]): 0.0037 nM; Kd (EGFR-mmh [15]): 12.6 nM; T½ (EGFR-mmh [15]): 12 min; koff (EGFR-mmh [15]): 0.00096 s⁻¹; kon (EGFR-mmh [15]): 76000 M⁻¹ s⁻¹; Kd (EGFR-mFc [16]): 2.43 nM; T½ (EGFR-mFc [16]): 58 min; koff (EGFR-mFc [16]): 0.000199 s⁻¹; kon (EGFR-mFc [16]): 81000 M⁻¹ s⁻¹; koff (EGFRvIII-mFc [2]): 7.38e-05 s⁻¹; kon (EGFRvIII-mFc [2]): 188000 M⁻¹ s⁻¹; Kd (EGFR-mFc [17]): 0.38 nM; T½ (EGFR-mFc [17]): 163 min; koff (EGFR-mFc [17]): 7.07e-05 s⁻¹; kon (EGFR-mFc [17]): 187000 M⁻¹ s⁻¹; A431 MFI [11]: 2290 MFI; Fold Above Background [11]: 1.6 fold

Reference: patent US20160304615A1 (Regeneron, published 2016)
